{
  "source": "patent US20200277339A1",
  "about": "(GENOME PROTECTION, published 2020)",
  "binders": {"B1": {"name": "CBLB502 mutant MIM1 (ligand)", "chain": "MRGSHHHHHHGMASMTGGQQMGRDLYDDDDKDPMAQVINTNSLSLLTQNNLNKSQSSLSSAIERLSSGLRINSAKDDAAGQAIANRFTSNIKGLTQASRNANDGISIAQTTEGALNEINNNLQRVRELSVQATNGTNSDSDLKSIQDEIQQRLEEIDRVSNQTQFNGVKVLSQDNQMKIQVGANDGETITIDLQKIDVKSLGLDGFNVNSPGISGGGGGILDSMGTLINEDAAAAKKSTANPLASIDSALSKVDAVRSSLGAIQNRFDSAITNLGNTVTALASARSRIEDADYATEVSNMSKAQILQQAGTSVLAQANQVPQNVLSLLR"}, "B2": {"name": "CBLB502 mutant MIM5 (ligand)", "chain": "B1 chain with Q264A, N265K, R266A, N273A, N276A, R285A"}, "B3": {"name": "CBLB502 mutant MIM2 (ligand)", "chain": "B1 chain with R285A"}, "B4": {"name": "CBLB502 mutant MIM3 (ligand)", "chain": "B1 chain with N273A, N276A, R285A"}, "B5": {"name": "CBLB502 variant 461 (ligand)", "chain": "MRGSHHHHHHGMASMTGGQQMGRDLYDLVPRGSAKDPMAQVINTNSLSLLTQNNLNKSQSSLSSAIERLSSGLRINSAKDDAAGQAIANRFTSNIKGLTQASRNANDGISIAQTTEGALNEINNNLQRVRELSVQATNGTNSDSDLKSIQDEIQQRLEEIDRVSNQTQFNGVKVLSQDNQMKIQVGANDGETITIDLQKIDVKSLGLDGFNVNSPGISGGGGGILDSMGTLINEDAAAAKKSTANPLASIDSALSKVDAVRSSLGAIQNRFDSAITNLGNTVTNLNSAR"}, "B6": {"name": "CBLB502 mutant 33MIMX (ligand)", "chain": "MRGSHHHHHHGMASMTGGQQMGRDLYDLVPRGSAKDPSGLRINSAKDDAAGQAIANRFTSNIKGLTQASRNAADGISIAQTTEGALNEINNNLQRVRELSVQATNGTNSDSDLKSIQDEIQQRLEEIDRVSNQTQANGVKVLSQDNAMKIQVGANDGAAITIDLQKIDVKSLGLDGFNVNSPGISGGGGGILDSMGTLINEDAAAAKKSTANPLASIDSALSKVDAVRSSLGAIQARFAAAIANLGNTVTNLNSARSRIEDADYATEVSNMSKAQILQQAGTSVLAQANQVPQNVLSLLR"}, "B7": {"name": "CBLB502 mutant MIM4 (ligand)", "chain": "MRGSHHHHHHGMASMTGGQQMGRDLYDDDDKDPMAQVINTNSLSLLTQNNLNKSQSSLSSAIERLSSGLRINSAKDDAAGQAIANRFTSNIKGLTQASRNANDGISIAQTTEGALNEINNNLQRVRELSVQATNGTNSDSDLKSIQDEIQQRLEEIDRVSNQTQFNGVKVLSQDNQMKIQVGANDGETITIDLQKIDVKSLGLDGFNVNSPGISGGGGGILDSMGTLINEDAAAAKKSTANPLASIDSALSKVDAVRSSLGAIDSAITALGATVTALASAASRIEDADYATEVSNMSKAQILQQAGTSVLAQANQVPQNVLSLLR"}, "B8": {"name": "CBLB502 mutant MIXC (ligand)", "chain": "MSGLRINSAKDDAAGQAIANRFTSNIKGLTQASRNANDGISIAQTTEGALNEINNNLQRVRELSVQATNGTNSDSDLKSIQDEIQQRLEEIDRVSNQTQFNGVKVLSQDNQMKIQVGANDGETITIDLQKIDVKSLGLDGFNVNSPGSTANPLASIDSALSKVDAVRSSLGAIQARFAAAIANLGNTVTNLNSARSRIEDADYATEVSNMSKAQILQQAGTSVLAQANQVPQNVLSLLVPRGSHHHHHHG"}, "B9": {"name": "CBLB502 variant 485D (ligand)", "chain": "MSGLRINSAKDDAAGQAIANRFTSNIKGLTQASRNANDGISIAQTTEGALNEINNNLQRVRELSVQATNGTNSDSDLKSIQDEIQQRLEEIDRVSNQTQFNGVKVLSQDNQMKIQVGANDGETITIDLQKIDVKSLGLDGFNVNSPGSTANPLASIDSALSKVDAVRSSLGAIDSAITALGNTVTNLNSARSRIEDADYATEVSNMSKAQILQQAGLVPRGSHHHHHHG"}, "B10": {"name": "CBLB502 (ligand)", "chain": "not shown"}, "B11": {"name": "CBLB502 variant MF227C (ligand)", "chain": "MSGLRINSAKDDAAGQAIANRFTSNIKGLTQASRNANDGISIAQTTEGALNEINNNLQRVRELSVQATNGTNSDSDLKSIQDEIQQRLEEIDRVSNQTQFNGVKVLSQDNQMKIQVGANDGETITIDLQKIDVKSLGLDGFNVNSPGSTANPLASIDSALSKVDAVRSSLGAIQNRFDSAITNLGNTVTNLNSARSRIEDADYANQVPQNVLSLLVPRGSHHHHHHG"}, "B12": {"name": "CBLB502 variant 445 (ligand)", "chain": "MRGSHHHHHHGMASMTGGQQMGRDLYDLVPRGSAKDPMAQVINTNSLSLLTQNNLNKSQSSLSSAIERLSSGLRINSAKDDAAGQAIANRFTSNIKGLTQASRNANDGISIAQTTEGALNEINNNLQRVRELSVQATNGTNSDSDLKSIQDEIQQRLEEIDRVSNQTQFNGVKVLSQDNQMKIQVGANDGETITIDLQKIDVKSLGLDGFNVNSPGISGGGGGILDSMGTLINEDAAAAKKSTANPLASIDSALSKVDAVRSSLGAIQNRFD"}, "B13": {"name": "CBLB502 variant 467 (ligand)", "chain": "MRGSHHHHHHGMASMTGGQQMGRDLYDLVPRGSAKDPMAQVINTNSLSLLTQNNLNKSQSSLSSAIERLSSGLRINSAKDDAAGQAIANRFTSNIKGLTQASRNANDGISIAQTTEGALNEINNNLQRVRELSVQATNGTNSDSDLKSIQDEIQQRLEEIDRVSNQTQFNGVKVLSQDNQMKIQVGANDGETITIDLQKIDVKSLGLDGFNVNSPGISGGGGGILDSMGTLINEDAAAAKKSTANPLASIDSALSKVDAVRSSLGAIQNRFDSAITNLGNTVTNLNSARSRIEDA"}},
  "key": {"[1]": {"target": "TLR5 of the cell-based reporter assays", "assay": "cell-based or functional assay"}, "[2]": {"target": "TLR5 of the cell-based reporter assays", "assay": "cell-based or functional assay", "remark": "listed apart in the source"}},
  "note": "Positions count from the first letter of the chain named.",
  "data": [
    {"binder": "B1", "values": [
      {"measurement": "Signaling EC50 Normalized by CBLB502", "setting": "[1]", "result": 0.9, "unit": "fold vs CBLB502"}
    ]},
    {"binder": "B2", "values": [
      {"measurement": "Signaling EC50 Normalized by CBLB502", "setting": "[1]", "result": 54, "unit": "fold vs CBLB502"}
    ]},
    {"binder": "B3", "values": [
      {"measurement": "Signaling EC50 Normalized by CBLB502", "setting": "[1]", "result": 1.2, "unit": "fold vs CBLB502"}
    ]},
    {"binder": "B4", "values": [
      {"measurement": "Signaling EC50 Normalized by CBLB502", "setting": "[1]", "result": 4.6, "unit": "fold vs CBLB502"}
    ]},
    {"binder": "B5", "values": [
      {"measurement": "Relative EC50 vs 502, Signaling (LecZ)", "setting": "[2]", "result": 105, "unit": "fold vs 502"},
      {"measurement": "Relative EC50 vs 502, Signaling (Luc)", "setting": "[2]", "result": 97, "unit": "fold vs 502"}
    ]},
    {"binder": "B6", "values": [
      {"measurement": "Signaling EC50 Normalized by CBLB502", "setting": "[1]", "result": 1.3, "unit": "fold vs CBLB502"}
    ]},
    {"binder": "B7", "values": [
      {"measurement": "Signaling EC50 Normalized by CBLB502", "setting": "[1]", "result": 37, "unit": "fold vs CBLB502"}
    ]},
    {"binder": "B8", "values": [
      {"measurement": "Signaling EC50 Normalized by CBLB502", "setting": "[1]", "result": 1.5, "unit": "fold vs CBLB502"}
    ]},
    {"binder": "B9", "values": [
      {"measurement": "Relative EC50 vs 502, Signaling (LecZ)", "setting": "[2]", "result": 44, "unit": "fold vs 502"}
    ]},
    {"binder": "B10", "values": [
      {"measurement": "Relative EC50 vs 502, Signaling (LecZ)", "setting": "[2]", "result": 1, "unit": "fold vs 502"},
      {"measurement": "Relative EC50 vs 502, Signaling (Luc)", "setting": "[2]", "result": 1, "unit": "fold vs 502"}
    ]},
    {"binder": "B11", "values": [
      {"measurement": "Relative EC50 vs 502, Signaling (LecZ)", "setting": "[2]", "result": 5.5, "unit": "fold vs 502"}
    ]},
    {"binder": "B12", "values": [
      {"measurement": "Relative EC50 vs 502, Signaling (LecZ)", "setting": "[2]", "result": 694, "unit": "fold vs 502"},
      {"measurement": "Relative EC50 vs 502, Signaling (Luc)", "setting": "[2]", "result": 141000, "unit": "fold vs 502"}
    ]},
    {"binder": "B13", "values": [
      {"measurement": "Relative EC50 vs 502, Signaling (LecZ)", "setting": "[2]", "result": 57, "unit": "fold vs 502"},
      {"measurement": "Relative EC50 vs 502, Signaling (Luc)", "setting": "[2]", "result": 71, "unit": "fold vs 502"}
    ]}
  ]
}
